Bridge positions count the residues as written; N and C are the ends. Ends that are not written are not given here.

Data on three molecules can be found in US20190151483A1, “METHODS OF MAKING 18F-LABELED PRECURSORS AND PEPTIDES, LABELED C-MET BINDING PEPTIDES, AND METHODS OF USE THEREOF” (The United States of America, as Represented by the …, priority 2016, published 2019).

Series [1] deals with human prostate cancer cells with known high PSMA expression. As to the kind of experiment: In vivo biodistribution and PET images in xenograft mouse models of high-PSMA prostate tumor cell line. The settings on record: data not shown.
The target of a further series is T1, c-MET receptors (Homo sapiens, UniProt P08581).
T1 construct: endogenous in cells; host or cells: MKN-45, SNU-16 or U87-MG cells
Description: In vitro saturation binding assay with MKN-45, SNU-16 or U87-MG cells. The protocol: In vitro saturation assays were performed to determine the binding affinity of Compound 1 for c-MET receptors. Increasing concentrations of Compound 1 were incubated with MKN-45, SNU-16 or U87-MG cells. Non-specific binding was determined in the presence of an unlabeled Met peptide (10^−5 M). Bound peptide was separated from free peptide and the radioactive content was determined. Data was analyzed using a one site binding hyperbola. […] The binding constant was determined to be 3.9 nM. In addition, the estimated Met expression levels (2.4×10^6 receptors per cell) were consistent with known expression in MKN-45, SNU-16, and U87-MG cells. […] (data not shown)

The subject of series [2] is SNU-16 (moderate Met) xenografts. In kind it is in vivo, mouse.
For series [3], the system named is U87-MG (low Met) xenografts. In kind it is in vivo, mouse.
Series [4] has as its system MKN-45 (high Met) xenografts.
For series [5] the following is noted: reported labeled albumin; cited from earlier work.

T1 sequence (P08581 25-1390): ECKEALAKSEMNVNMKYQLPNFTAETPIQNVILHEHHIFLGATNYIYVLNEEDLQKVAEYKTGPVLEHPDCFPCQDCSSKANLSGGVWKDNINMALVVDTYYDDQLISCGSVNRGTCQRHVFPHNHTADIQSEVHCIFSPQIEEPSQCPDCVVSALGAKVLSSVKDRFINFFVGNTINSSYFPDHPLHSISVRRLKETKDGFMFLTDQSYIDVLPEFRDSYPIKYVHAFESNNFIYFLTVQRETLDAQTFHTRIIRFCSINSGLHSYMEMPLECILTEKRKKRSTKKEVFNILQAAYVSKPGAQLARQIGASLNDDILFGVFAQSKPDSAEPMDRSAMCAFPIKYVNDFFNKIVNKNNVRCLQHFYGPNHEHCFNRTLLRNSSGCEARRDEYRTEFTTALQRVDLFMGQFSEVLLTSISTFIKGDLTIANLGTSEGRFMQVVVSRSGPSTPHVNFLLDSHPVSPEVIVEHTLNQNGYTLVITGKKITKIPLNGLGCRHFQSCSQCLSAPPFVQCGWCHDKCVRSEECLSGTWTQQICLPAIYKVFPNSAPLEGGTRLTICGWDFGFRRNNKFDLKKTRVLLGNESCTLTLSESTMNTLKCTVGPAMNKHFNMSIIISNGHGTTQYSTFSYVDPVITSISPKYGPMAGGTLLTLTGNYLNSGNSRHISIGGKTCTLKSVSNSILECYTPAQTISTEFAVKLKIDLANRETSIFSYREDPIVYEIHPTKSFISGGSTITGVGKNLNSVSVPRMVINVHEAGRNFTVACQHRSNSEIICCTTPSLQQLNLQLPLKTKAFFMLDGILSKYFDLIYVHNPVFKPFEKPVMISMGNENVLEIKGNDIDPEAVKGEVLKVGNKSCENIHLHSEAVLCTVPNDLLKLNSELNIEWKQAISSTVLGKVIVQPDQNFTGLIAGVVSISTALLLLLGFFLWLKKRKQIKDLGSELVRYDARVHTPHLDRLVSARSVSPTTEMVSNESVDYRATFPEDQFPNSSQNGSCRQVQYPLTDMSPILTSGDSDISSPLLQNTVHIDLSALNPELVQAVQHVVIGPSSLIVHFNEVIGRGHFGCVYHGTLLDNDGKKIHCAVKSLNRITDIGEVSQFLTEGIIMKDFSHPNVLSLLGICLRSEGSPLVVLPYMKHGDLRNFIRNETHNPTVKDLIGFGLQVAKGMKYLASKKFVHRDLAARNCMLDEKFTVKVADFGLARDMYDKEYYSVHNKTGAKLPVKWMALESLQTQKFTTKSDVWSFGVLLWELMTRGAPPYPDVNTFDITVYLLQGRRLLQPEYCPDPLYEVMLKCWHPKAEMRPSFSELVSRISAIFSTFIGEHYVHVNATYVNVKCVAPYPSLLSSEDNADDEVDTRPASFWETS

Take `O=C(O)CC[C@H](NC(=O)N[C@@H](CCCCNC(=O)c1ccc([18F])nc1)C(=O)O)C(=O)O` [[^18F]DCFPyL]: the “biodistributions and PET images vs previously reported results” value in series [1] is on record as “comparable with previously reported results”.
As to “Compound 1: 18F-labeled c-Met peptide; cyclic peptide of SEQ ID NO: 1 reacted with [18F]fluoronicotinic acid-2,3,5,6-tetrafluorophenyl ester (AGSCYCSGPPRFECWCYETEGTGGGK; disulfide 6-14, 4-16; also: [18F]fluoronicotinoyl conjugated via tetrafluorophenyl ester, site not given here)”, the “specific binding to Met” value in the series with c-MET receptors (MKN-45 cells, non-specific binding with unlabeled Met peptide 10^−5 M) is more than 90%. In the series with c-MET receptors (MKN-45 cells, saturation assay, one site binding hyperbola, read-out: binding constant), the Kd stood at 3.9 nM. For the same molecule, the “ability to distinguish c-MET concentrations” value in the series with c-MET receptors (SNU-16 and U87-MG cell lines, data not shown) is “can distinguish c-MET concentrations”. The “estimated Met expression levels” value with c-MET receptors (from saturation binding) was 2.4×10^6 receptors per cell. Further, the PET tumor discernibility entry in series [2] (SNU-16 tumors) is given as “discernable”; in series [3] (U87-MG tumors), “more difficult to distinguish”; in series [4] (MKN-45 and SNU-16 xenografts, images at 30, 60, 120 min), “discerned as early as 30 min”. Further, the “Tumor:Muscle ratio over time course” value in series [2] (mouse, in vivo) is 7:1-18:1; in series [3] (mouse, in vivo), 3:1-5:1. Besides, the “fold decrease of T:M vs MKN-45 T:M” value in series [2] (mouse, in vivo) is reported as 2-60 fold. The “fold decrease of tumor uptake vs MKN-45 tumors” value in series [2] (mouse, in vivo) is 2-6 fold; in series [3] (mouse, in vivo) it was 3-40 fold. In series [4] (MKN xenografts, 30 to 120 min post-injection), the PET visualization entry was “tumors, kidneys and bladder could be visualized”. The “decrease of T:M ratio on blocking with unlabeled Met peptide” value in series [4] (MKN-45 xenografts, compared to unblocked) came to 65%. Also, in series [4] (mouse, in vivo), the “decrease of tumor uptake from 30 to 120 min” value is “approximately 37%”. For the same molecule, the “tumor retention and non-target clearance” value in series [4] (mouse, in vivo) is “highly retained in MKN-45 tumors (high Met expression) and rapidly cleared from non-target tissue”.

B1: [^18F]albumin: albumin radiolabeled by conjugating Compound 3 to pendant amine groups (protein, UniProt P02770 25-608, looked up)
Albumin: EAHKSEIAHRFKDLGEQHFKGLVLIAFSQYLQKCPYEEHIKLVQEVTDFAKTCVADENAENCDKSIHTLFGDKLCAIPKLRDNYGELADCCAKQEPERNECFLQHKDDNPNLPPFQRPEAEAMCTSFQENPTSFLGHYLHEVARRHPYFYAPELLYYAEKYNEVLTQCCTESDKAACLTPKLDAVKEKALVAAVRQRMKCSSMQRFGERAFKAWAVARMSQRFPNAEFAEITKLATDVTKINKECCHGDLLECADDRAELAKYMCENQATISSKLQACCDKPVLQKSQCLAEIEHDNIPADLPSIAADFVEDKEVCKNYAEAKDVFLGTFLYEYSRRHPDYSVSLLLRLAKKYEATLEKCCAEGDPPACYGTVLAEFQPLVEEPKNLVKTNCELYEKLGEYGFQNAVLVRYTQKAPQVSTPTLVEAARNLGRVGTKCCTLPEAQRLPCVEDYLSAILNRLCVLHEKTPVSEKVTKCCSGSLVERRPCFSALTVDETYVPKEFKAETFTFHSDICTLPDKEKQIKKQTALAELVKHKPKATEDQLKTVMGDFAQFVDKCCKAADKDNCFATEGPNLVARSKEALA
modifications: 18F-labeled via Compound 3
notes: albumin radiolabeled by conjugating Compound 3 to pendant amine groups
For B1, the “blood pool imaging property” value in series [5] was “excellent blood pool imaging property”.
